# In patent US20170320960A1:
# Biological target: hMFI2-ECD-His (extracellular domain of human MFI2, residues G20-C709, with Histidine tag) (human) (UniProt P08582)
# Assay: SPR (BIAcore 2000): antibody captured, monomeric MFI2-His flowed, 1:1 Langmuir fit; species not given, taken as hMFI2-His
# hMFI2-ECD-His (extracellular domain of human MFI2, residues G20-C709, with Histidine tag) (human), sequence (P08582 20-709 limits assumed, form in doubt): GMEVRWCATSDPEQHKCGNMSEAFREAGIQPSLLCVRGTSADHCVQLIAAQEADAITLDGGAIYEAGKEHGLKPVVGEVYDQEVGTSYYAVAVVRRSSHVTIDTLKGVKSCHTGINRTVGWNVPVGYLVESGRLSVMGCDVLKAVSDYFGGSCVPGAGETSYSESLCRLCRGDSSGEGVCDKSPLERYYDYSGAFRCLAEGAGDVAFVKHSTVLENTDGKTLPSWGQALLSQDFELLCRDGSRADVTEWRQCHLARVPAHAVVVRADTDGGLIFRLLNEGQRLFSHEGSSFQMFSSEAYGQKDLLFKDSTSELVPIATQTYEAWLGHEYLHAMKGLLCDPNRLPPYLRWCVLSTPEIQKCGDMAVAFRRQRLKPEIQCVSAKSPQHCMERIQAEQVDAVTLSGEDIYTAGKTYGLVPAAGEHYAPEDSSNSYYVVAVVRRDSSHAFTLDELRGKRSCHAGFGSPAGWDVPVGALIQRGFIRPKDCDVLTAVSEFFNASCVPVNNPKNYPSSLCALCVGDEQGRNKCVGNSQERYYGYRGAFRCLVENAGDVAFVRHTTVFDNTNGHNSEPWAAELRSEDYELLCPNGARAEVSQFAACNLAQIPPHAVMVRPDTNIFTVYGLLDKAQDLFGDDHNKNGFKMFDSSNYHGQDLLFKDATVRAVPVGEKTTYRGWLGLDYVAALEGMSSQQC
row,Kd,Binder
1,4.4 nM,"hSC57.5 (antibody, human IgG1, kappa, V domains shown) VH: EVQLVQSGAEVKKPGESLKISCKGSGYSFTDYYLHWVRQMPGKGLEWMGRINPYNGATSYNQIFKDQVTISADKSISTAYLQWSSLKASDTAMYYCARGGDYDFPWYWGQGTTVTVSS VL: DIQMTQSPSSLSASVGDRVTITCKASQDVYAAVAWYQQKPGKAPKLLIYWASTRHAGVPSRFSGSGSGTDFTLTISSLQPEDFATYYCQQHYRTPWTFGQGTKVEIKR"
2,4.5 nM,"SC57.46 (antibody, V domains shown) VH: QVQLKESGPGLVAPSQSLSITCTVSGFSLTSYGVHWVRQPPGKGLEWLGIIWAGGTTNYNSALMSRLSIRKDNSKSQVFLKMNSLQTDDTAMYYCARDRGYDGYFDYAVDYWGQGTSVTVSS VL: DIQMTQSPPSLSASVGETVTITCRTSENIYSYLTWYQQKQGKSPQLLVYNAKTLAEGVPSRFSGSGSGTQFSLKINSLQPEDFGSYYCQHHYGTPLTFGAGTKLELK"
3,1.1 nM,"SC57.5 (antibody, V domains shown) VH: EVQLQQSGPELVKPGASVKISCKASGYSFTDYYLHWVKQSHVKSLEWIGRINPYNGATSYNQIFKDKASLTVDKSSSTAYMDLHSLTSEDSAVYYCARGGDYDFPWYWGQGTTLTVSP VL: DIVMTQSHKFMSTSVGDRVSITCKASQDVYAAVAWYHQKPGQSPKLLIYWASTRHAGVPDRFTGSGSGTDYTLTISSVQAEDLALYYCQQHYRTPWTFGGGTKLEIK"
4,3.2 nM,"SC57.11 (antibody, V domains shown) VH: QVQLQQSGAELMKPGASVKISCKATGYTFSNYRIEWMKQRPGHGLEWIGEILPRTGNTNYNENFKGKATFTADTSSNTAYIQLSSLTSEDSAVYYCARDDGYYGRFAYWGQGTLVTVSA VL: DIQMTQTTSSLSASLGDRVTISCRASQDISSYLNWYQQKPDGTVKLLIYYTSRLHSGVPSRFSGSGSGTDYSLTINNLEQEDIATYFCQQGNTLPPTFGGGTKLEIK"
